Data taken from patent US20190270809A1 (FOURTH MILITARY MEDICAL UNIVERSITY, published 2019).
Substitutions are numbered along the chain they refer to. Each block holds one binder with its values, some of them ahead of it.

Legend:
[1] = molecular target: T1, human BASIGIN recombinant protein (human, UniProt P35613-2 22-205, limits assumed); assay: SPR (ProteOn XPR36), human BASIGIN amine-coupled on chip, antibody as analyte
T1 construct: also called hBASIGIN
T1 sequence (looked up): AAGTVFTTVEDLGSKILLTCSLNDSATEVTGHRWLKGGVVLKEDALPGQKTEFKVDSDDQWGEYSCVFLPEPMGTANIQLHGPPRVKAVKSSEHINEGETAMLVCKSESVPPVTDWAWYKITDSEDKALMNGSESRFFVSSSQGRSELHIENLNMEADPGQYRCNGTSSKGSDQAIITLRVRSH
Description: The affinity of the antibody was measured with ProteOn XPR36 (Bio-Rad). The GLC chip (Bio-Rad, 1765011) was activated with 0.04 M EDC+0.01 M sulfo-NHS (Bio-Rad). The human BASIGIN was diluted to […] with 10 mM NaAc (pH 4.5) and then injected onto the chip at the rate of 30 μl/min to couple the antigen with the activated chip via amino groups. Finally, the chip were inactivated with 1 M ethanolamine-HCl (Bio-Rad), and when the chip was rotated for 90 degrees, it was washed with a buffer (PBS/0.005% Tween 20) until the baseline was stable. Five cell culture supernatants containing scFv antibody and one negative control were injected on six horizontal channels, respectively, at feeding rate of 30 μl/min. The time for binding was set as 60 s and the time for dissociation was set as 900 s. The data were analyzed using the Kinetic-Langmuir model.
The binding affinity of the three humanized antibodies, the mouse antibody 6H8 and the chimeric antibody c6H8 were also determined by SPR (for detailed steps, please refer to the description in example 6), data were shown in Table 2.

[2] = molecular target: T1, human BASIGIN recombinant protein; assay: ELISA, coated human BASIGIN recombinant protein, HRP-labelled goat anti-human light chain constant region secondary antibody, A450
Description: 200 ng of human BASIGIN recombinant protein was coated in an ELISA plate and allowed to stand overnight at 4° C. The coated plate was blocked with 0.1% BSA at room temperature for 1 hour. Three antibodies obtained in example 8 along with the parental mouse monoclonal 6H8 and chimeric antibody c6H8 were each prepared into 5 solutions with gradient concentrations of 10, 100, 1,000, 10,000 and 100,000 ng/ml. 100 μl of each solution was added into individual wells and the plate was allowed to stand at room temperature for 1 hour. 100 μl of 1:4,000 diluted horseradish peroxidase-labeled goat anti-human light chain constant region as secondary antibody (Millipore) was added and allowed to stand at room temperature for 1 hour. The plates were then washed with 200 μl of 1×PBS buffer for 3 times, TMB substrate solution (50 μl/well) was added to each well to react for 10 min, and the stopping solution (2 M HCl, 50 μl/well) was added to terminate the reaction. The absorbance at 450 nm was read in an ELISA plate reader.

Kd [1]: 0.102 nM
koff [1]: 5.44e-05 s⁻¹
kon [1]: 531000 M⁻¹ s⁻¹
B1: humanized antibody HP6H8-3 (antibody, V domains shown)
VH: EVQLVESGGGLVQPGGSLKLSCAASGFTFSNFWMNWVRQAPGKGLEWVAEIRLKSNNYATHYAESVKGRFTISRDDSKNTLYLQMNSLKTEDTAVYYCTSYDYEYWGQGTLVTVSA
VL: DIQMTQSPSSLSASVGDRVTLTCKASENVGTYVSWYQQKPGQAPKLLIYGASNRYTGVPSRFTGSGSGTDFTLTISSLQPDDFATYYCGQSYSYPFTFGSGTKLEIK
notes: Derived from scFv clone 11242; also called WBP229-203; pCI-WBP229-203L/H

Kd [1]: 0.0583 nM
koff [1]: 3.6e-05 s⁻¹
kon [1]: 618000 M⁻¹ s⁻¹
B2: humanized antibody HP6H8-2 (antibody, V domains shown)
VH: B1 VH with K89R
VL: B1 VL with S9A, L21I, T22S, A43T, T63S
notes: Derived from scFv clone 11245; also called WBP229-204; pCI-WBP229-204L/H

Kd [1]: 0.0905 nM
koff [1]: 4.96e-05 s⁻¹
kon [1]: 548000 M⁻¹ s⁻¹
B3: humanized antibody HP6H8-1 (antibody, V domains shown)
VH: B1 VH with K19R, A49S
VL: B1 VL with S10T, T22S, Q42K, D81E
notes: Derived from scFv clone 11305; also called WBP229-205; pCI-WBP229-205L/H

EC50 (read off the curve) [2]: ~0.5 µg/mL
Kd [1]: 1.17 nM
koff [1]: 6.64e-05 s⁻¹
kon [1]: 56600 M⁻¹ s⁻¹
B4: mouse monoclonal antibody HAb18GC2 (6H8) (antibody, V domains shown)
VH: EVKLEESGGGLVQPGGSMKLSCVASGFTFSNFWMNWVRQSPEKGLEWVAEIRLKSNNYATHYAESVKGRFTISRDDSKSSVYLQMNNLRTEDTGIYYCTSYDYEYWGQGTLVTVSA
VL: NIVMTQSPKSMSMSVGERVTLSCKASENVGTYVSWYQQKPEQSPKLLIYGASNRYTGVPDRFTGSGSATDFTLTISSVQAEDLADYHCGQSYSYPFTFGSGTKLEIK
notes: Mouse monoclonal from hybridoma CCTCC-C200636; also called mouse 6H8; Mouse monoclonal 6H8

Kd [1]: 0.452 nM
koff [1]: 5.81e-05 s⁻¹
kon [1]: 128000 M⁻¹ s⁻¹
B5: chimeric antibody c6H8 (antibody, V domains shown)
VH: B4 VH
VL: B4 VL
notes: Mouse 6H8 variable regions fused to a human constant region of IgG1 isotype; also called chimeric 6H8
